The target in test [1] is HLA-B27.C101S, C-terminally Sv5 tagged misfolding mutant of HLA-B*27:05 (human). The experiment in a line: non-reducing SDS-PAGE and immunoblot. In general terms: In western blotting, separated proteins are transferred to a membrane and probed.
For test [2], the target named is HLA-B27.C164S, C-terminally Sv5 tagged misfolding mutant of HLA-B*27:05 (human). The test is described as follows: non-reducing SDS-PAGE and immunoblot.
The target of test [3] is HLA-B*27:05 heavy chain, carboxy terminally Sv5 tagged, stably expressed in isogenic HeLa cells (HeLa-B27.Sv5) (human). The experiment in a line: pulse chase, immunoprecipitation and non-reducing SDS-PAGE.

This note sets out measurements from paper PMC4399817.

“HLA-B27.C101S, C-terminally Sv5 tagged misfolding mutant of HLA-B*27:05 (natural protein)”: the stoichiometry N in test [1] was 2. “HLA-B27.C164S, C-terminally Sv5 tagged misfolding mutant of HLA-B*27:05 (natural protein)”: the stoichiometry N in test [2] turned out to be 2. The substance “HLA-B*27:05 heavy chain, carboxy terminally Sv5 tagged, stably expressed in isogenic HeLa cells (HeLa-B27.Sv5) (natural protein)” returned a stoichiometry N in test [3] of 2.

Broadly, the stoichiometry N is the number of molecules, sites or subunits per partner or assembly.
